Patent US20210145973A1 (CITY OF HOPE, published 2021)
Where no end group is shown, it is not given here. phosphorothioated ssDNA 20mer = not defined here

Assays:
[1] = molecular target: T1, acetylated-STAT3 protein (containing amino acids 127-722) (Homo sapiens (Human), UniProt P40763 127-722, acetylated (site not stated for this protein)); experiment: ELISA, plate coated with acetylated-STAT3 protein (amino acids 127-722), n=3 (FIG. 20C, 20D)
T1 construct: Coated on the ELISA plate
From the text: (§1) FIGS. 20A-20I: Conjugating phosphorothioated DNA oligonucleotides (PS) enables acetyl-STAT3 peptide cell penetration and specific interaction with STAT3 and exportin 7 proteins as well as downregulation of STAT3 activation. FIG. 20A. Phosphorothioated DNA oligonucleotide-modified STAT3 peptides efficiently penetrate human glioma cell line U251 and human colon cancer cell line HCT116, as assessed by flow cytometry. FIG. 20B. Cell penetration of the PS-acetyl-STAT3 peptide and its colocalization with STAT3 protein in U251 cells are shown by confocal microscopy. Scale, 50 μm. FIG. 20C and FIG. 20D. The PS acetyl-STAT3 peptide specifically binds to acetylated STAT3 protein and exportin 7, as assessed by ELISA, in which the plate is coated by an acetylated-STAT3 protein (containing amino acids 127-722), n=3. FIG. 20E and FIG. 20F. The specific interaction between acetyl-STAT3 peptide and STAT3/exportin 7 shown by immunoprecipitation of the FITC-labeled PS-acetyl-STAT3 peptide followed by Western blotting, shown in U251 cells. FIG. 20G. Downregulation of STAT3 phosphorylation, shown in HCT116 tumors by immunoprecipitation/Western blotting. FIG. 20H. […]
(§2) The PS acetyl-STAT3 peptide specifically binds to acetylated STAT3 protein and exportin 7, as assessed by ELISA, in which the plate is coated by an acetylated-STAT3 protein (containing amino acids 127-722), n=3 (FIG. 20C and FIG. 20D). […]

STAT3 protein = molecular target: T2, STAT3 protein (human, UniProt P40763 2-770); experiment: immunoprecipitation of the FITC-labeled peptide, Western blotting, U251 cells (FIG. 20E, 20F)
T2 construct: Endogenous STAT3 of human cells (U251, HepG2) or of HCT116 xenograft tumor homogenates
From the text: as §1, §2

T1 sequence (P40763 127-722): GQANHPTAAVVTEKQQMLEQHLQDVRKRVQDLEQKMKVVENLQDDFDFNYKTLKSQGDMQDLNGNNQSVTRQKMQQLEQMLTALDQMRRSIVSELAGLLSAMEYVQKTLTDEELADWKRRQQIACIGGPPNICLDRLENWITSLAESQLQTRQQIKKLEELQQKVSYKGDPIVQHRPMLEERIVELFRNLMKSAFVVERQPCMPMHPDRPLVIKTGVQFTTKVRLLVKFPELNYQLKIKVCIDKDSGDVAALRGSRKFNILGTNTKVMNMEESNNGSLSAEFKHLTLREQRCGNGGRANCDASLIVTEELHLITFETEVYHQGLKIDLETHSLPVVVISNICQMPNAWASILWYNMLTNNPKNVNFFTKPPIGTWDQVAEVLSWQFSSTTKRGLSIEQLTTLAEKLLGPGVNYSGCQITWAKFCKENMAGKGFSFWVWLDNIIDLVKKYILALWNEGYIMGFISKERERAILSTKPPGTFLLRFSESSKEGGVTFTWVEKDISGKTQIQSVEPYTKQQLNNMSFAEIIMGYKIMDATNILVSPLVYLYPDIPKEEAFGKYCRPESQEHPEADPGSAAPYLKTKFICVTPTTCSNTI
T2 sequence (P40763 2-770 limits assumed): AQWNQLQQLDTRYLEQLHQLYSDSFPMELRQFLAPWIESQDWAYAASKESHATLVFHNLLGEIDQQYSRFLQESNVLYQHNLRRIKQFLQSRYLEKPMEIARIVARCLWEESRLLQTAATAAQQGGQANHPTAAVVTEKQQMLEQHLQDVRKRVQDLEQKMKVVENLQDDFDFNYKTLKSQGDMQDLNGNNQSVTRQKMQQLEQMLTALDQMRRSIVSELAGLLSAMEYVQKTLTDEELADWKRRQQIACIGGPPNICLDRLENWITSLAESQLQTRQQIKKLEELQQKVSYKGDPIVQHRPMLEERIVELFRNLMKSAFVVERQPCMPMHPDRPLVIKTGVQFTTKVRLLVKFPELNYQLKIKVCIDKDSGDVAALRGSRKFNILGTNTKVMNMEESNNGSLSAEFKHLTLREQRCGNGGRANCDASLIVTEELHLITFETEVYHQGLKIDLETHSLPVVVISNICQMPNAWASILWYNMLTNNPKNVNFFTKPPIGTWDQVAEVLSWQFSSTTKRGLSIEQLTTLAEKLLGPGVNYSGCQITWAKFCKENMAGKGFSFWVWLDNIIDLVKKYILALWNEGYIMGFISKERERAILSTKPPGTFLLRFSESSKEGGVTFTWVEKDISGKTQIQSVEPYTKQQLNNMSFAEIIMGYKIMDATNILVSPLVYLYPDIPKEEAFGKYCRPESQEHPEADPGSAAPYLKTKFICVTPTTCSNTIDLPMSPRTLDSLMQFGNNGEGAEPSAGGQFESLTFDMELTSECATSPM

B1: PS-acetyl-STAT3 peptide (STAT3-acet.K685 peptide elongated at its C-terminus with a phosphorothioated ssDNA 20mer, FITC-labeled) (peptide)
peptide: PDIPKEEAFGK(Ac)YCRPESQEHPC-{hydrazide linker with FITC (Fam dT)-phosphorothioated ssDNA 20mer}
modifications: cysteine pairing not given here; reading uncertain
notes: Peptide-oligonucleotide conjugate; only the peptide part is a polypeptide; The FITC in the linker was used as the tag for precipitation
binding result [1]: binds | binding result (STAT3 protein): binds
